According to US20160136262A1:

Key:
[1] = target: T1, H1-mini2-cluster1+5+6-GCN4 without leader sequence and with FLAG-thrombin-foldon-HIS (SEQ ID NO: 6); test: ELISA/HTRF ratio, reference itself; conditions: remark: other sources report otherwise
[2] = target: T1, H1-mini2-cluster1+5+6-GCN4 without …; test: ELISA signal over HTRF expression signal; average (AV); conditions: remark: other sources report otherwise

B1: CR6261 (antibody, V domains shown)
VH: EVQLVESGAEVKKPGSSVKVSCKASGGPFRSYAISWVRQAPGQGPEWMGGIIPIFGTTKYAPKFQGRVTITADDFAGTVYMELSSLRSEDTAMYYCAKHMGYQVRETMDVWGKGTTVTVSS
VL: QSVLTQPPSVSAAPGQKVTISCSGSSSNIGNDYVSWYQQLPGTAPKLLIYDNNKRPSGIPDRFSGSKSGTSATLGITGLQTGDEANYYCATWDRRPTAYVVFGGGTKLTVLG
B1 showed a fold increase of ratio over parental H1 mini-HA [1] of 1 fold and a ratio binding/HTRF signal [2] of 5.94.
